Data on one protein can be found in FireProtDB (doi:10.1016/0022-2836(74)90188-0).

For the data set the following is noted: Aspergillus oryzae (strain ATCC 42149 / RIB 40); pH 4.7; 38 °C; GdnHCl; DSC; glycine 0.04 M; reversible: yes(>90%); whole UniProt chain shown.

B1: Guanyl-specific ribonuclease T1 wild type, P00651 (protein)
chain: MMYSKLLTLTTLLLPTALALPSLVERACDYTCGSNCYSSSDVSTAQAAGYQLHEDGETVGSNSYPHKYNNYEGFDFSVSSPYYEWPILSSGDVYSGGSPGADRVVFNENNQLAGVITHTGASGNNFVECT
With B1, the unfolding free energy is 6.6 kcal/mol.
